Reference: PMC4329502

Tests used:
HER2 antigen = HER2 antigen (UniProt P04626); test: ELISA
[1] = target: EGFR1 antigen (Homo sapiens (assumed)) (UniProt P00533); test: ELISA

| Substance | Kd (HER2 antigen) [nM] | Kd [1] [nM] |
| --- | --- | --- |
| ZHER2:4 affibody (designed binder) | 47.9 | – |
| anti-EGFR1 nanobody 7D12 (VHH) | – | 3.5 |
